T1: mouse SIGN-R1 (immobilized on CM4 chip) (mouse, UniProt Q8CJ91 74-325, limits assumed)
T1 sequence (looked up): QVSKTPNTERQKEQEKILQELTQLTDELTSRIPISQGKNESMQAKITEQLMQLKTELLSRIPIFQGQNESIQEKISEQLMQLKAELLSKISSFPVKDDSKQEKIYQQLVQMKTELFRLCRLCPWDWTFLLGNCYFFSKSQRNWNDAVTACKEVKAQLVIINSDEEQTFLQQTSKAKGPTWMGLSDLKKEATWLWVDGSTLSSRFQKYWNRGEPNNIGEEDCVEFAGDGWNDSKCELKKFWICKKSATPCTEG

B1: mouse FcγRIIIA (immobilized on CM4 chip) (receptor, UniProt P08508 31-215, looked up)
chain: ALPKAVVKLDPPWIQVLKEDMVTLMCEGTHNPGNSSTQWFHNGRSIRSQVQASYTFKATVNDSGEYRCQMEQTRLSDPVDLGVISDWLLLQTPQRVFLEGETITLRCHSWRNKLLNRISFFHNEKSVRYHHYKSNFSIPKANHSHSGDYYCKGSLGSTQHQSKPVTITVQDPATTSSISLVWYHT
notes: also called mouse FcγR3A
B2: M019 stradomer (Fc fusion)
chain: ERKCCVECPPCPEPRGPTIKPCPPCKCPAPNLLGGPSVFIFPPKIKDVLMISLSPIVTCVVVDVSEDDPDVQISWFVNNVEVHTAQTQTHREDYNSTLRVVSALPIQHQDWMSGKEFKCKVNNKDLPAPIERTISKPKGSVRAPQVYVLPPPEEEMTKKQVTLTCMVTDFMPEDIYVEWTNNGKTELNYKNTEPVLDSDGSYFMYSKLRVEKKNWVERNSYSCSVVHEGLHNHHTTKSFSRTPGK
notes: Murine counterpart of G019 (N-terminal IgG2 hinge multimerization domain); The entry may include a leader
B3: M028 stradomer (Fc fusion)
chain: SIKQIEDKIEEILSKIYHIENEIARIKKLIGERGEPRGPTIKPCPPCKCPAPNLLGGPSVFIFPPKIKDVLMISLSPIVTCVVVDVSEDDPDVQISWFVNNVEVHTAQTQTHREDYNSTLRVVSALPIQHQDWMSGKEFKCKVNNKDLPAPIERTISKPKGSVRAPQVYVLPPPEEEMTKKQVTLTCMVTDFMPEDIYVEWTNNGKTELNYKNTEPVLDSDGSYFMYSKLRVEKKNWVERNSYSCSVVHEGLHNHHTTKSFSRTPGK
notes: Murine counterpart of G028 (N-terminal isoleucine zipper); The entry may include a leader
B4: mouse FcγRIIB (immobilized on CM4 chip) (receptor, UniProt P08101 30-207, looked up)
chain: THDLPKAVVKLEPPWIQVLKEDTVTLTCEGTHNPGNSSTQWFHNGRSIRSQVQASYTFKATVNDSGEYRCQMEQTRLSDPVDLGVISDWLLLQTPQLVFLEGETITLRCHSWRNKLLNRISFFHNEKSVRYHHYSSNFSIPKANHSHSGDYYCKGSLGRTLHQSKPVTITVQGPKSSR
notes: also called mouse FcγR2b
B5: mouse IgG2a Fc homodimers (other, UniProt P01863 98-330, looked up)
chain: EPRGPTIKPCPPCKCPAPNLLGGPSVFIFPPKIKDVLMISLSPIVTCVVVDVSEDDPDVQISWFVNNVEVHTAQTQTHREDYNSTLRVVSALPIQHQDWMSGKEFKCKVNNKDLPAPIERTISKPKGSVRAPQVYVLPPPEEEMTKKQVTLTCMVTDFMPEDIYVEWTNNGKTELNYKNTEPVLDSDGSYFMYSKLRVEKKNWVERNSYSCSVVHEGLHNHHTTKSFSRTPGK
notes: domain: Fc; also called IgG2a controls; IgG2a Fc control
B6: M045c stradomer (Fc fusion)
chain: DEPRGPTIKPCPPCKCPAPNLLGGPSVFIFPPKIKDVLMISLSPIVTCVVVDVSEDDPDVQISWFVNNVEVHTAQTQTHREDYNSTLRVVSALPIQHQDWMSGKEFKCKVNNKDLPAPIERTISKPKGSVRAPQVYVLPPPEEEMTKKQVTLTCMVTDFMPEDIYVEWTNNGKTELNYKNTEPVLDSDGSYFMYSKLRVEKKNWVERNSYSCSVVHEGLHNHHTTKSFSRTPGKERKCCVECPPCP
notes: Murine counterpart of G045c; The entry may include a leader that is cleaved from the secreted protein; Mix of homodimers and multimers
B7: M045 F1 (highest molecular weight multimer fraction of M045c) (Fc fusion)
chain: B6 chain
notes: The entry may include a leader; also called Fraction 1; M045 Fraction 1
B8: M045 F2 (Fc fusion)
stradomer monomer: B6 chain
notes: also called lower molecular weight multimer fraction of M045
B9: M045 F3 (Fc fusion)
stradomer monomer: B6 chain
notes: also called homodimer fraction of M045
B10: His-tagged human FcγRIIb (R&D system cat #1875-CD) (receptor, UniProt P31994 46-217, looked up)
chain: APPKAVLKLEPQWINVLQEDSVTLTCRGTHSPESDSIQWFHNGNLIPTHTQPSYRFKANNNDSGEYTCQTGQTSLSDPVHLTVLSEWLVLQTPHLEFQEGETIVLRCHSWKDKPLVKVTFFQNGKSKKFSRSDPNFSIPQANHSHSGDYHCTGNIGYTLYSSKPVTITVQAP
notes: Bought protein
B11: Cynomolgus FcγRIIb (receptor)
chain: TPAAPPKAVLKLEPPWINVLREDSVTLTCGGAHSPDSDSTQWFHNGNLIPTHTQPSYRFKANNNDSGEYRCQTGRTSLSDPVHLTVLSEWLALQTPHLEFREGETIMLRCHSWKDKPLIKVTFFQNGKSKKFSHMDPNFSIPQANHSHSGDYHCTGNIGYTPYSSKPVTITVQVP
B12: Cynomolgus FcγRIIIa (receptor, UniProt Q8SPW2 17-208, looked up)
chain: GMRAEDLPKAVVFLEPQWYRVLEKDRVTLKCQGAYSPEDNSTRWFHNESLISSQTSSYFIAAARVNNSGEYRCQTSLSTLSDPVQLEVHIGWLLLQAPRWVFKEEESIHLRCHSWKNTLLHKVTYLQNGKGRKYFHQNSDFYIPKATLKDSGSYFCRGLIGSKNVSSETVNITITQDLAVSSISSFFPPGYQ
B13: His-tagged mouse FcγRII (R&D system cat #1460-CD) (receptor, UniProt P08101 30-207, looked up)
chain: B4 chain
notes: Bought protein; also called Mouse FcγRIIb; Mouse FcyRII
B14: His-tagged mouse FcγRIII (R&D system cat #1960) (receptor, UniProt P08508 31-215, looked up)
chain: B1 chain
notes: Bought protein; also called Mouse FcyRIII

Tests used:
[1] = biological target: B5; test: SPR (Biacore), receptor amine-coupled to a CM4 chip; panel 'Mse FcR3A'
Procedure: (§1) FcγRIIIA, FcγRIIB and SIGN-R1 receptors were immobilized to a CM4 chip using amine immobilization to 560, 500, and 1000RU, respectively to compensate for protein size.
(§2) Regeneration was achieved by a 10 sec injection of 1M MgCl at 100 ul/min, followed by a brief wash with running buffer. KDs were calculated using T100 evaluation software.

[2] = biological target: B4; test: SPR (Biacore), receptor amine-coupled to a CM4 chip, analyte 500 nM to 1.9 nM; panel 'Mse FcR2B'
Procedure: as §1, §2

[3] = biological target: T1, mouse SIGN-R1 (immobilized on CM4 chip); test: SPR (Biacore), receptor amine-coupled to a CM4 chip, analyte 500 nM to 1.9 nM; panel 'Mse SIGN-R1'
Procedure: as §1, §2

[4] = biological target: T1, mouse SIGN-R1 (immobilized on CM4 chip); test: SPR (Biacore) as in Example 4, SIGN-R1 on the chip
Procedure: as §1, §2
(§3) M045F was first gel fractionated using an AktaXpress protein purification system and a GE HiLoad 16/60 Superdex 200 prep grade column.

[5] = biological target: B1; test: SPR (Biacore), receptor amine-coupled to a CM4 chip, analyte 500 nM to 1.9 nM; panel 'Mse FcR3A'
Procedure: as §1, §2

[6] = biological target: B5; test: SPR (Biacore), receptor amine-coupled to a CM4 chip; panel 'Mse FcR2B'
Procedure: as §1, §2

[7] = biological target: T1, mouse SIGN-R1 (immobilized on CM4 chip); test: SPR (Biacore) as in Example 4, SIGN-R1 on the chip; the sheet itself says the value cannot be accurately calculated; traces flat
Procedure: as §1, §2, §3

[8] = biological target: T1, mouse SIGN-R1 (immobilized on CM4 chip); test: SPR (Biacore) as in Example 4, SIGN-R1 on the chip; the sheet itself says the value cannot be accurately calculated; traces nearly flat
Procedure: as §1, §2, §3

G001 (native IgG1 Fc) = biological target: T2, G001 (native IgG1 Fc) (human, UniProt P01857-1 99-330 = IgG part); test: BLI (Octet 96 Red), receptor on sensor, G001 in solution
T2 construct: domain: Fc; also called IgG1 Fc control; homodimeric monomer of IgG1 Fc
Procedure: For binding analysis of mouse protein, His-tagged mouse FcγRII (R&D system cat #1460-CD) and FcγRIII R&D system cat #1960) were separately loaded on anti-penta-His Biosensors (ForteBio cat #18-5077) at 10 ug/ml in 1× kinetic analysis buffer (ForteBio cat #18-5032). For binding analysis of human protein, His-tagged human FcγRIIb (R&D system cat #1875-CD) and FcγRIIIa R&D system cat #4325-Fc) were separately loaded on anti-penta-His Biosensors (ForteBio cat #18-5077) at 10 ug/ml in 1× kinetic analysis buffer (ForteBio cat #18-5032). Following sensor tip loading protein association was measured by transfer of tips to preparations of either monomeric fraction (over a range of concentrations) or the multimeric fractions (over a range of concentrations) in 1× kinetics analysis buffer and dissociation was measured by transfer of sensor tips to 1× kinetics buffer. Analysis was as described (Data Analysis User Guide 6.4ForteBio). Analysis was standardized as described above assigning a MW of 50 kD to homodimers and 150 kD to all other protein preparations.

A Kd [1] of 80.1 nM was found for B1 in this work.

For B2, the Kd [2] was 45.3 nM and the binding result [3] was “binds”.

A Kd [4] of 638 nM and a Kd [5] of 18.7 nM were found for B3 in this work.

A Kd [6] of 642 nM was found for B4 in this work.

A Kd [7] of 132 nM was found for B5 in this work.

A Kd [4] of 334 nM was found for B6 in this work.

A Kd [4] of 90.9 nM was found for B7 in this work.

A Kd [4] of 91.2 nM was found for B8 in this work.

A Kd [8] of 11000 nM was found for B9 in this work.

A Kd (G001 (native IgG1 Fc)) of 1310 nM was found for B10 in this work.

A Kd (G001 (native IgG1 Fc)) of 2040 nM was found for B11 in this work.

A kon (G001 (native IgG1 Fc)) of 124000 M⁻¹ s⁻¹ was found for B12 in this work.

A Kd (G001 (native IgG1 Fc)) of 1510 nM was found for B13 in this work.

A Kd (G001 (native IgG1 Fc)) of 4180 nM was found for B14 in this work.

From patent US20220056087A1 (GLIKNIK, published 2022)
